The values below come from paper PMC4159047 (Science signaling, 2014).

The term Kd denotes a measure of binding affinity in units of concentration. Broadly, the koff is a measure of how fast the partners let go of each other. Lower therefore signals a long-lived complex. As usually defined, the kon is the second-order rate constant of association.

Assay [1] has as its target type IV collagen. The experiment in a line: SPR. (SPR reads the build-up and loss of mass on a sensor chip optically.)
For assay [2], the target named is type IV collagen (biotin (Pierce EZ-link biotinylation kit) in the pull-downs). Put plainly: SPR.

In the assay with type IV collagen [1], “Gpr126-NT-Fc (secreted, Fc-tagged protein containing the N-terminal fragment of zebrafish Gpr126) (Fc fusion)” returned a Kd of 1.3 nM, a koff of 0.000404 s⁻¹ and a kon of 306000 M⁻¹ s⁻¹.

B1: CUBPTX-Fc (signal peptide, CUB domain and PTX domain of Gpr126 followed by an Fc tag) (Fc fusion, zebrafish, UniProt C6KFA3 41-336, looked up)
chain: CNVVLTDSQGSFTSPCYPNDYPPSQSCNWTIQAPAGFIVQITFLDFELEEAQGCIYDRVVVKTGTSDAKFCGLTANGLTLNSTGNVMEVFFNSDFSVQKKGFHISYKQVAVTLRNQKVTMPKSSKTILRVSNSISIPVLTAFTVCFEIARTAQKATETIFTLSDAAGTSILAFEKTSNGMELFIGASYCSVDNLLTSSDITATMKPLCLTWTKSSGLIGVYFGGHYFSSICSASQIYTLQSGGLLQIAGKGSSSVSVDDQNLDGFIYNFRLWDHAMLSSELSALTCDTVGNVVDWD
In the assay with type IV collagen [2], B1 came in with a Kd of 1.2 nM, a koff of 0.00333 s⁻¹ and a kon of 2.78e+06 M⁻¹ s⁻¹.
